{
  "source": "patent US20110053831A1",
  "data": [
    {"target": "JUN1 fragment of c-Jun (UniProt P05412)", "assay": "cell-based or functional assay", "units": {"decrease in growth of yeast on HTU media (reverse two-hybrid)": "%"}, "values": [
      {"binder": "RSDYKDDDDKAYQSM", "note": "[SEQ ID NO 26]", "decrease in growth of yeast on HTU media (reverse two-hybrid)": "> 50"},
      {"binder": "RSDYKDDDDKLYQSLLTATKELLFVAPVAKAFTSCD", "note": "[SEQ ID NO 46]", "decrease in growth of yeast on HTU media (reverse two-hybrid)": "> 50"},
      {"binder": "RSDYKDDDDKAYQSKRL", "note": "[SEQ ID NO 28]", "decrease in growth of yeast on HTU media (reverse two-hybrid)": "> 50"},
      {"binder": "RSDYKDDDDKIIIYIFLNISNSIKNIFDNMGKIR", "note": "[SEQ ID NO 42]", "decrease in growth of yeast on HTU media (reverse two-hybrid)": "> 50"},
      {"binder": "RSDYKDDDDKGLQGRRQPGQQPQGRWSGRALPAHR", "note": "[SEQ ID NO 60]", "decrease in growth of yeast on HTU media (reverse two-hybrid)": "> 50"},
      {"binder": "RSDYKDDDDKGLQGRRQPGQQPQGRWSGRALPAHR", "note": "[SEQ ID NO 62]", "decrease in growth of yeast on HTU media (reverse two-hybrid)": "> 50"},
      {"binder": "RSDYKDDDDKAYQSISVVVVLVV", "note": "[SEQ ID NO 68]", "decrease in growth of yeast on HTU media (reverse two-hybrid)": "> 50"},
      {"binder": "RSDYKDDDDKAYQSISFLSQ", "note": "[SEQ ID NO 48]", "decrease in growth of yeast on HTU media (reverse two-hybrid)": "> 50"},
      {"binder": "SEQ ID NO 34 (peptide) peptide: RSDYKDDDDKTYQSIKGPENKVKMYFLNDLNFSRRDAGFKARKDALDIASDYENISVVNIPLWGGVVQRIISSVKLSTFLCGLENKDVLIFNFPMAKPFWHILSFFHRLLKFRIVLLIDDKPCRRRPCSLTWYQLMHRYRY", "decrease in growth of yeast on HTU media (reverse two-hybrid)": "> 50"},
      {"binder": "RSDYKDDDDNTPHSSDGHNNP", "note": "[SEQ ID NO 52]", "decrease in growth of yeast on HTU media (reverse two-hybrid)": "> 50"},
      {"binder": "RSDYKDDDDKAYQESTKALVEGGADLILIETVLVVVVLVV", "note": "[SEQ ID NO 32]", "decrease in growth of yeast on HTU media (reverse two-hybrid)": "> 50"},
      {"binder": "RSDYKDDDDKAYQSIIANEEEREKNFASSKKDGSYTDLL", "note": "[SEQ ID NO 30]", "decrease in growth of yeast on HTU media (reverse two-hybrid)": "> 50"},
      {"binder": "SEQ ID NO 44 (peptide) peptide: RSDYKDDDDKKDSIRRRGENISSQEVEAVLMSHPEVVNAAVYPVRGDLPGD", "decrease in growth of yeast on HTU media (reverse two-hybrid)": "> 50"},
      {"binder": "SEQ ID NO 50 (peptide) peptide: RSDYKDDDDKKDSIRRRGENISSQEVEAVLMSHPEVVNAAVYPVRGDLPGD", "decrease in growth of yeast on HTU media (reverse two-hybrid)": "> 50"},
      {"binder": "SEQ ID NO 66 (peptide) peptide: RSDYKDDDDKAYQSIMAVAAQQPVAFLVGRQRRRGQVGIDSGDQHLRTPLFHELCRRRPCSLAWYQLMHRYRY", "decrease in growth of yeast on HTU media (reverse two-hybrid)": "> 50"},
      {"binder": "RSDYKDDDDKAYQSINSSPVLPENSQELSLHLKQHVTKS", "note": "[SEQ ID NO 54]", "decrease in growth of yeast on HTU media (reverse two-hybrid)": "> 50"},
      {"binder": "RSDYKDDDDKAYQSIRSGGIESSSKRER", "note": "[SEQ ID NO 56]", "decrease in growth of yeast on HTU media (reverse two-hybrid)": "> 50"},
      {"binder": "RSDYKDDDDKGLQGRRRQGYQSIKP", "note": "[SEQ ID NO 58]", "decrease in growth of yeast on HTU media (reverse two-hybrid)": "> 50"},
      {"binder": "RSDYKDDDDKIYSSILWGTKWCVLLVITP", "note": "[SEQ ID NO 40]", "decrease in growth of yeast on HTU media (reverse two-hybrid)": "> 50"},
      {"binder": "SEQ ID NO 64 (peptide) peptide: RSDYKDDDDKAYQSISLAGYHGDTSRTFLVGSVSATARKLVEATQETMIDYTCRRRPCSLTWYQLMHRYRY", "decrease in growth of yeast on HTU media (reverse two-hybrid)": "> 50"},
      {"binder": "SEQ ID NO 72 (peptide) peptide: RSDYKDDDDKAYQSIIGAGKSTLIKALTGVYHADRGTIWLEGQAISPKNTAHAQQCRRRPCSLTWYQLMHRYRY", "decrease in growth of yeast on HTU media (reverse two-hybrid)": "> 50"},
      {"binder": "RSDYKDDDDKANQLPKILAGRLIFIKC", "note": "[SEQ ID NO 70]", "decrease in growth of yeast on HTU media (reverse two-hybrid)": "> 50"},
      {"binder": "RSDYKDDDDKLINQSYAYPYIY", "note": "[SEQ ID NO 38]", "decrease in growth of yeast on HTU media (reverse two-hybrid)": "> 50"},
      {"binder": "RSDYKDDDDKAYQSIIH", "note": "[SEQ ID NO 36]", "decrease in growth of yeast on HTU media (reverse two-hybrid)": "> 50"}
    ]}
  ]
}
